Substitutions are numbered along the chain they refer to. Bounds are passed on as bounds.

The labels stand for the following.
B1: C47B157 (human IgG2sigma) (antibody, V domains shown)
VH: QVQLVQSGAEVKKPGASVKVSCKASGYTFTDYNMHWVRQAPGQGLEWMGDIYPYNGGTGYNQKFKGRVTMTRDTSTSTVYMELSSLRSEDTAVYYCARGGWHAMDSWGQGTLVTVSS
VL: DIVMTQSPLSLPVTPGEPASISCRSRQSIVHTNRYTYLAWYLQKPGQSPQLLIYKVSNRFSGVPDRFSGSGSGTDFTLKISRVEAEDVGVYYCFQGSHVPYTFGGGTKLEIK
notes: HFA variant of C47B116; human IgG2sigma/kappa; also called IgG2 Fc-silent C47B157
B2: C47B161 (human IgG2sigma) (antibody, V domains shown)
VH: B1 VH with G44R, M70I, T76A, V79A
VL: B1 VL
notes: HFA variant of C47B116; human IgG2sigma/kappa; also called IgG2 Fc-silent C47B161
B3: C47B147 (antibody, V domains shown)
VH: EVQLVQSGAEVKKPGESLKISCKGSGYTFTDYNMHWVRQMPGKGLEWMGDIYPYNGGTGYNQKFKGQVTISADKSISTAYLQWSSLKASDTAMYYCARGGWHAMDSWGQGTLVTVSS
VL: DIVMTQSPDSLAVSLGERATINCRSRQSIVHTNRYTYLAWYQQKPGQPPKLLIYKVSNRFSGVPDRFSGSGSGTDFTLTISSLQAEDVAVYYCFQGSHVPYTFGGGTKLEIK
notes: HFA variant of C47B116; human IgG2sigma/kappa
B4: C47B151 (antibody, V domains shown)
VH: B1 VH with A16S, M70I, R72A, T74E, V79A
VL: B3 VL
notes: as for B3
B5: C47B239 (antibody, V domains shown)
VH: EVQLVQSGAEVKKPGESLKISCKGSGYSFTSYWIGWVRQMPGKGLEWMGIIYPGDSDTRYSPSFQGQVTISADKSISTAYLQWSSLKASDTAMYYCARVGRFASHQLDYWGQGTLVTVSS
VL: EIVLTQSPATLSLSPGERATLSCRASQSVSNRLAWYQQKPGQAPRLLIYGASNRATGIPARFSGSGSGTDFTLTISSLEPEDFAVYYCQQGRSWPFTFGQGTKVEIK
notes: human IgG2sigma/kappa
B6: C47B244 (antibody, V domains shown)
VH: B5 VH with T30D, S31D, M93V
VL: B5 VL
notes: human IgG2sigma/kappa
B7: C47B243 (antibody, V domains shown)
VH: B5 VH with S31D, M93V
VL: B5 VL
notes: human IgG2sigma/kappa
B8: C47B241 (antibody, V domains shown)
VH: B5 VH with T30D, S31D, Y32S, M93V
VL: B5 VL
notes: human IgG2sigma/kappa
B9: C47B240 (antibody, V domains shown)
VH: B5 VH
VL: B5 VL with L33Q, Y49H, G50S
notes: human IgG2sigma/kappa
B10: C47B242 (antibody, V domains shown)
VH: B5 VH with S31D, Y32S, M93V
VL: B5 VL
notes: human IgG2sigma/kappa
B11: B6H12.2 (human IgG2sigma) (antibody, V domains shown)
VH: EVKLVESGGDLVKPGGSLKLSCAASGFTFSGYGMSWVRQTPDKRLEWVATITSGGTYTYYPDSVKGRFTISRDNAKNTLYLQIDSLKSEDTAIYFCARSLAGNAMDYWGQGTSVTVSS
VL: DIVMTQSPATLSVTPGDRVSLSCRASQTISDYLHWYQQKSHESPRLLIKFASQSISGIPSRFSGSGSGSDFTLSINSVEPEDVGVYYCQNGHGFPRTFGGGTKLEIK
notes: also called IgG2 Fc-silent B6H12.2; positive control anti-CD47 mAb
B12: C47B152 (antibody, V domains shown)
VH: B1 VH with A16S, M70I, R72A, T74E, V79A
VL: EIVLTQSPATLSLSPGERATLSCRSRQSIVHTNRYTYLAWYQQKPGQAPRLLIYKVSNRFSGIPARFSGSGSGTDFTLTISSLEPEDFAVYYCFQGSHVPYTFGGGTKLEIK
notes: as for B3
B13: C47B148 (antibody, V domains shown)
VH: B3 VH
VL: B12 VL
notes: as for B3
B14: C47B222 Fab (Fab, V domains shown)
VH: B5 VH with S31D, M93V
VL: B5 VL with S30N, Y49H, G50W, N53T, T56I, R92A
notes: His-tagged Fab from HEK293
B15: C47B227 Fab (Fab, V domains shown)
VH: B5 VH with T30D, S31D, M93V
VL: B5 VL with S30G, N31S, G50W, N53T, R92A, S93Y
notes: His-tagged Fab from HEK293
B16: C47B161 Fab (Fab, V domains shown)
VH: B1 VH with G44R, M70I, T76A, V79A
VL: B1 VL
B17: B6H12.2 Fab (Fab, V domains shown)
VH: B11 VH
VL: B11 VL
notes: Fab used for co-crystallization
B18: C47B167 Fab (Fab, V domains shown)
VH: EVQLVQSGAEVKKPGESLKISCKGSGYTFTSYWMQWVRQMPGKGLEWMGEINPSNGRTDYNEKFRGQVTISADKSISTAYLQWSSLKASDTAMYYCARQGGSGYGNSYGFFDVWGQGTTVTVSS
VL: EIVLTQSPATLSLSPGERATLSCRASSSVSYMHWYQQKPGQAPRLLIYDTSRLASGIPARFSGSGSGTDFTLTISSLEPEDFAVYYCQQWRSNPYTFGGGTKVEIK
notes: His-tagged Fab from HEK293

For the first test, the target named is T1, recombinant human CD47 extracellular domain (ECD), His-tagged, monomer (human, UniProt Q08722 19-141).
T1 construct: C-terminal 6xHis tag; monomeric fraction from Superdex 200; also called human CD47 ECD; CD47-ECD monomer
The test can be described thus: ProteOn SPR.
Turning to B1, the “fold change of affinity against parent C47B116” value was not above 5 fold.

Turning to B2, the “fold change of affinity against parent C47B116” value was not above 5 fold.

As for B3, the “fold decrease of affinity against parent C47B116” value is more than 6 fold.

As to B4, the “fold decrease of affinity against parent C47B116” value was more than 6 fold.

Another test has as its target T2, Cyno CD47 ECD protein, His-tagged, monomer (cyno).
T2 construct: extracellular domain; also called cynomolgus CD47
The test can be described thus: ProteOn SPR; cyno KD / human KD.
As for B5, the “KD Ratio Cyno/Human” value was determined as 1.4.

Consider B6, for which the “KD Ratio Cyno/Human” value was 0.7.

For the molecule B7, the “KD Ratio Cyno/Human” value amounted to 1.

Consider B8, for which the “KD Ratio Cyno/Human” value amounted to 0.8.

As to B9, the “KD Ratio Cyno/Human” value was 1.1.

In the case of B10, the “KD Ratio Cyno/Human” value was found to be 1.

In a further test the target is T3, recombinant human CD47 extracellular domain (ECD), His-tagged, dimer (human, UniProt Q08722 19-141).
T3 construct: Dimeric fraction of the same His-tagged ECD; also called His-tagged CD47-ECD dimer protein
As to the kind of experiment: MSD; CD47-ECD dimer binding to captured SIRP alpha-Fc, mAb 10 µg/ml.
On to B5, for which the “% SIRP alpha Inhibition” value worked out at 96.7%.

As for B6, the “% SIRP alpha Inhibition” value came out at 99.8%.

Take B7: the “% SIRP alpha Inhibition” value was 99.8%.

Turning to B8, the “% SIRP alpha Inhibition” value is 99.8%.

Regarding B9, the “% SIRP alpha Inhibition” value was determined as 93%.

For B10, the “% SIRP alpha Inhibition” value was 99.1%.

The next test addresses T1, recombinant human CD47 extracellular …. The test can be described thus: ProteOn SPR; mAb captured, ECD monomer as analyte.
By Kd is commonly meant the constant that tells how readily two partners part at equilibrium. With B1, the Kd came out at 3.53 nM.

Take B2: the Kd came out at 2.87 nM.

As to B3, the equilibrium dissociation constant (Kd) was determined as 9.55 nM.

B4: the Kd was 6.89 nM.

The target in another test is T2, Cyno CD47 ECD protein, His-tagged, …. As to the kind of experiment: ProteOn SPR; mAb captured, ECD monomer as analyte.
Molecule B1 registered a Kd of 3.71 nM.

The molecule B2 gave a Kd of 2.96 nM.

The molecule B3 registered a Kd of 13.5 nM.

As to B4, the affinity, expressed as Kd, was 9.34 nM.

In a further test the target is T1, recombinant human CD47 extracellular …. As to the kind of experiment: ProteOn SPR; mAb captured, ECD monomer as analyte. The source holds these as a separate data set.
Protocol: (§1) Kinetic binding affinities to human CD47 and Cyno CD47 ECD proteins were determined by a Protein Interaction Array System (ProteOn). Briefly, mAbs were captured on the sensor chip via anti-IgG-Fc to reach surface density of 200-350 RU. […] The dissociation was monitored for 30 min. Data were fitted to 1:1 binding model.
As for B11, the Kd is 0.539 nM.

A further test addresses T2, Cyno CD47 ECD protein, His-tagged, …. As to the kind of experiment: ProteOn SPR; mAb captured, ECD monomer as analyte. The source holds these as a separate data set.
Protocol: as §1
B11 gave a Kd of 0.572 nM.

Another test has as its target T4, human CD47 on Jurkat cells (human, UniProt Q08722 19-323).
T4 construct: Endogenous CD47 of the cell lines; also called CD47-expressing Jurkat cells; CD47 on HL60 cells
The test can be described thus: MSD on Jurkat cells; blocks SIRP alpha-Fc binding.
Description: The ECL signal was plotted as a function of antibody concentrations, and EC₅₀ values were obtained from fitting the dose-response curves using non-linear regression model in GraphPad Prism.
For orientation: EC50 means the concentration at which the effect is half-maximal. Read a low EC50 as an effect from little substance. For B11, the midpoint of the response, the EC50, lay at 0.21 µg/mL.

The target of the next test is T1, recombinant human CD47 extracellular …. The test can be described thus: ProteOn SPR; mAb captured, ECD monomer as analyte. This is another data set of the same source.
B5: the Kd is 6.69 nM.

With B6, the Kd was 2.12 nM.

Consider B7, for which the Kd is 2.02 nM.

In the case of B8, the Kd was 2.62 nM.

Regarding B9, the Kd is 8.59 nM.

For the molecule B10, the Kd came to 3.47 nM.

A further test addresses T2, Cyno CD47 ECD protein, His-tagged, …. As to the kind of experiment: ProteOn SPR; mAb captured, ECD monomer as analyte. The source holds these as a separate data set.
Molecule B5 registered a Kd of 9.7 nM.

B6: the Kd was 1.55 nM.

With B7, the Kd stood at 2.08 nM.

The molecule B8 returned a Kd of 2.03 nM.

As for B9, binding was put at a Kd of 9.23 nM.

B10: the Kd was 3.46 nM.

For a further test, the target named is T4, human CD47 on Jurkat cells. The test can be described thus: MSD on Jurkat cells; blocks SIRP alpha-Fc binding. The source holds these as a separate data set.
As for B12, a half-maximal effect (EC50) was put at 0.26 µg/mL.

In the case of B1, a half-maximal response (EC50) required 0.13 µg/mL. Compared with the last molecule, the EC50 is about 2-fold lower.

Molecule B2 showed an EC50 of 0.06 µg/mL.

Turning to B3, a half-maximal effect (EC50) was put at 0.24 µg/mL.

B4 gave an EC50 of 0.29 µg/mL. This EC50 and that of the molecule before are within 1.5-fold of each other.

Take B13: it took 0.09 µg/mL to reach a half-maximal effect (EC50). This EC50 is about 3.2-fold lower than that of the molecule before.

In the next test the target is T2, Cyno CD47 ECD protein, His-tagged, …. The test can be described thus: ProteOn SPR; cyno KD / human KD. The source holds these as a separate data set.
As to B1, the “KD Ratio Cyno/Human” value is 1.1.

With B2, the “KD Ratio Cyno/Human” value worked out at 1.

As for B3, the “KD Ratio Cyno/Human” value came to 1.4.

As to B4, the “KD Ratio Cyno/Human” value is 1.4.

For the next test the target is unchanged. The test can be described thus: ProteOn SPR; cyno KD / human KD. This is another data set of the same source.
Protocol: as §1
For the molecule B11, the “KD Ratio Cyno/Human” value is 1.1.

A further test addresses CD47 ECD-C15G mutant, His-tagged (human, UniProt Q08722 19-141, N-terminus Q1 cyclized as pyroglutamate (C47B161 complex); glycans at 5, 16, 32, 55, 93 except in the endoH-deglycosylated C47B161 complex). As to the kind of experiment: Fab:CD47 complex isolated by chromatography and crystallized.
Protocol: The His-tagged CD47 was deglycosylated and further purified by affinity chromatography. The complex CD47:Fab was prepared by mixing Fabs with excess CD47 at a molar ratio ranging from 1.2:1.0 to 1.5:1.0. The complex was incubated overnight at 4° C., separated from the uncomplexed species using size exclusion chromatography, and concentrated to 7.5-20 mg/mL in 20 mM HEPES pH 7.4, 100 mM NaCl, 5% glycerol. The concentrated complex was then used to set up crystallization trials using the sitting drop method at 20° C. and crystals were optimized by varying the protein to reservoir ratio.
In the case of B14, the binding result was “binds”.

For B15, the binding result is given as “binds”.

With B16, the binding result is “binds”.

Turning to B17, the binding result was “binds”.

For B18, the binding result is reported as “binds”.
